Experimental data published in the supplement of paper PMC10567573.

B1: INTS4 (parent)
chain: TIIEPAGESDNPLRFTSGLVVALD

Variants of: B1
Test: protein stability index of a GFP-peptide fusion (GPS, HEK-293T) (PSI 1-6); higher = more stable
Settings: c terminus: a fixed tail appended
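Also: lentivirally expressed fusions sorted by FACS into six bins by GFP to DsRed ratio, PSI derived from sequencing read proportions per bin multiplied by bin number.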

In order of rising protein stability index:
1. TIIEPAGESDNPLRFTSFLVVALD  1.41
2. TIIEPAGESDNPLRFTCGLVVALD  1.52
3. TIIEPAGESDNPLRFTSLLVVALD  1.55
4. TIIEPAGESDWPLRFTSGLVVALD  1.63
5. TIIEPAGESDNPLRFTSCLVVALD  1.66
6. TIIEPAGESDNPLRFTSMLVVALD  1.67
7. TIIEPAGESDNPLRFTMGLVVALD  1.67
8. TIIEPAGESDNPLRFTVGLVVALD  1.73
9. TIIEPAGESDNPLRFYSGLVVALD  1.74
10. TIIEPAGESDNPLRFWSGLVVALD  1.76
11. TIIEPAGESDNPLRFTSYLVVALD  1.89
12. TIIEPAGESDNPLRFCSGLVVALD  1.91
13. TIIEPAGESDNYLRFTSGLVVALD  1.96
14. TIIEPAGESDNPLRFTSGWVVALD  1.98
15. TIIEPAGESDNPLRFLSGLVVALD  1.99
16. TIIEPAGESDNPLRFMSGLVVALD  2
17. TIIEPAGESDNPLRFVSGLVVALD  2.01
18. TIIEPAGESDNPLWFTSGLVVALD  2.03
19. TIIEPAGESDNPLFFTSGLVVALD  2.04
20. TIIEPAGESDNPLRFTRGLVVALD  2.05
21. TIIEPAGESDNPLRFTFGLVVALD  2.08
22. TIIEPAGESDNPLRFTSWLVVALD  2.09
23. TIIEPAGESDNLLRFTSGLVVALD  2.1
24. TIIEPAGESDNPLRFTWGLVVALD  2.14
25. TIIEPAGESDNWLRFTSGLVVALD  2.14
26. TIIEPAGESDNPLRFTSVLVVALD  2.15
27. TIIEPAGESDNPLRFTYGLVVALD  2.15
28. TIIEPAGESDNPLRWTSGLVVALD  2.2
29. TIIEPAGESDNPLRFISGLVVALD  2.21
30. TIIEPAGESDNPLRFTSHLVVALD  2.21
31. TIIEPAGESDNPLYFTSGLVVALD  2.21
32. TIIEPAGESDNPLRFHSGLVVALD  2.23
33. TIIEPAGESDNPLRFTSRLVVALD  2.24
34. TIIEPAGESDYPLRFTSGLVVALD  2.25
35. TIIEPAGESDNPLRFTIGLVVALD  2.27
36. TIIEPAGESDNILRFTSGLVVALD  2.27
37. TIIEPAGESDNPLMFTSGLVVALD  2.27
38. TIIEPAGESDNPLRFTSGLFVALD  2.31
39. TIIEPAGESDVPLRFTSGLVVALD  2.33
40. TIIEPAGESDNMLRFTSGLVVALD  2.33
41. TIIEPAGESDNPFRFTSGLVVALD  2.33
42. TIIEPAGESDNPLRFFSGLVVALD  2.35
43. TIIEPAGESDNPLRFTSGLVFALD  2.37
44. TIIEPAGESDNPLRFTSGFVVALD  2.38
45. TIIEPAGESDNPLRFTSILVVALD  2.4
46. TIIEPAGESDNFLRFTSGLVVALD  2.41
47. TIIEPAGESDNPLRFTSALVVALD  2.42
48. TIIEPAGESDNPLRFTSGLYVALD  2.44
49. TIIEPAGESDNPLIFTSGLVVALD  2.46
50. TIIEPAGESDNPLRFTHGLVVALD  2.5
51. TIIEPAGESDNPLRFTSTLVVALD  2.51
52. TIIEPAGESDNPLRFTAGLVVALD  2.51
53. TIIEPAGESDNCLRFTSGLVVALD  2.52
54. TIIEPAGESDNPLRFTSGLLVALD  2.53
55. TIIEPAGESDNPLRFTNGLVVALD  2.53
56. TIIEPAGESDNVLRFTSGLVVALD  2.53
57. TIIEPAGESDNPLRFTSPLVVALD  2.59
58. TIIEPAGESDNPLRFTSGLMVALD  2.59
59. TIIEPAGESDSPLRFTSGLVVALD  2.6
60. TIIEPAGESDNKLRFTSGLVVALD  2.61
61. TIIEPAGESDNHLRFTSGLVVALD  2.61
62. TIIEPAGESDNPLRFTSGYVVALD  2.62
63. TIIEPAGESDNPLCFTSGLVVALD  2.62
64. TIIEPAGESDTPLRFTSGLVVALD  2.64
65. TIIEPAGESDNPLRFTKGLVVALD  2.65
66. TIIEPAGESDNRLRFTSGLVVALD  2.65
67. TIIEPAGESDNPLRFTSGLWVALD  2.68
68. TIIEPAGESDNGLRFTSGLVVALD  2.68
69. TIIEPAGESDNPLRFTSQLVVALD  2.7
70. TIIEPAGESDNPLRFTSGIVVALD  2.71
71. TIIEPAGESDNPLRFTSGLIVALD  2.73
72. TIIEPAGESDNPLRFASGLVVALD  2.74
73. TIIEPAGESDNALRFTSGLVVALD  2.76
74. TIIEPAGESDNPLRFTSKLVVALD  2.77
75. TIIEPAGESDNPLKFTSGLVVALD  2.77
76. TIIEPAGESDNPLRFTSGLVIALD  2.78
77. TIIEPAGESDNPLRFTSGMVVALD  2.83
78. TIIEPAGESDNPLRFTSSLVVALD  2.83
79. TIIEPAGESDNPLVFTSGLVVALD  2.86
80. TIIEPAGESDNPLRYTSGLVVALD  2.87
81. TIIEPAGESDNPIRFTSGLVVALD  2.87
82. TIIEPAGESDNPLRFSSGLVVALD  2.88
83. TIIEPAGESDNNLRFTSGLVVALD  2.88
84. TIIEPAGESDNPLRFTSGLVLALD  2.89
85. TIIEPAGESDNPLRFTGGLVVALD  2.9
86. TIIEPAGESDNPLRFTTGLVVALD  2.92
87. TIIEPAGESDNTLRFTSGLVVALD  2.93
88. TIIEPAGESDNPCRFTSGLVVALD  2.94
89. TIIEPAGESDNPLRFTSGLAVALD  2.95
90. TIIEPAGESDNPLTFTSGLVVALD  2.96
91. TIIEPAGESDNPLLFTSGLVVALD  2.96
92. TIIEPAGESDNPLRFTSNLVVALD  2.99
93. TIIEPAGESDNPLRFTPGLVVALD  2.99
94. TIIEPAGESDNPLRFPSGLVVALD  3
95. TIIEPAGESDQPLRFTSGLVVALD  3
96. TIIEPAGESDNPVRFTSGLVVALD  3.01
97. TIIEPAGESDNPLRFKSGLVVALD  3.02
98. TIIEPAGESDNPLRFTQGLVVALD  3.06
99. TIIEPAGESDNPNRFTSGLVVALD  3.06
100. TIIEPAGESDNPLRFTLGLVVALD  3.12
101. TIIEPAGESDNSLRFTSGLVVALD  3.13
102. TIIEPAGESDNELRFTSGLVVALD  3.13
103. TIIEPAGESDNPWRFTSGLVVALD  3.14
104. TIIEPAGESDNPGRFTSGLVVALD  3.14
105. TIIEPAGESDNPLRFGSGLVVALD  3.15
106. TIIEPAGESDNPLRFTSELVVALD  3.15
107. TIIEPAGESDNPYRFTSGLVVALD  3.17
108. TIIEPAGESDRPLRFTSGLVVALD  3.19
109. TIIEPAGESDNPLRLTSGLVVALD  3.21
110. TIIEPAGESDNPLGFTSGLVVALD  3.25
111. TIIEPAGESDNPLQFTSGLVVALD  3.26
112. TIIEPAGESDNPLRFTSGLVHALD  3.27
113. TIIEPAGESDNPLRFTSGLHVALD  3.28
114. TIIEPAGESDNPLRFTSGVVVALD  3.33
115. TIIEPAGESDNPLRFQSGLVVALD  3.35
116. TIIEPAGESDNPLRFRSGLVVALD  3.35
117. TIIEPAGESDNPMRFTSGLVVALD  3.35
118. TIIEPAGESDNPLRFTSGLVAALD  3.36
119. TIIEPAGESDNPLRFTSGLRVALD  3.38
120. TIIEPAGESDNPLRFTSGLCVALD  3.38
121. TIIEPAGESDNPHRFTSGLVVALD  3.38
122. TIIEPAGESDNPLRFNSGLVVALD  3.39
123. TIIEPAGESDNDLRFTSGLVVALD  3.4
124. TIIEPAGESDNPLPFTSGLVVALD  3.4
125. TIIEPAGESDNPLRFESGLVVALD  3.44
126. TIIEPAGESDNPLRMTSGLVVALD  3.44
127. TIIEPAGESDNPLRFTSGLVKALD  3.45
128. TIIEPAGESDNPLRFTSGLNVALD  3.46
129. TIIEPAGESDNPLRFTSGLVCALD  3.48
130. TIIEPAGESDNPQRFTSGLVVALD  3.5
131. TIIEPAGESDNPLRKTSGLVVALD  3.54
132. TIIEPAGESDNPLRFTSGHVVALD  3.59
133. TIIEPAGESDNPPRFTSGLVVALD  3.6
134. TIIEPAGESDNPLAFTSGLVVALD  3.63
135. TIIEPAGESDNPLSFTSGLVVALD  3.63
136. TIIEPAGESDNPKRFTSGLVVALD  3.64
137. TIIEPAGESDNPLRFTSGLVGALD  3.65
138. TIIEPAGESDNPRRFTSGLVVALD  3.65
139. TIIEPAGESDNPLRFTSDLVVALD  3.67
140. TIIEPAGESDNPLRFTSGPVVALD  3.72
141. TIIEPAGESDNPLRITSGLVVALD  3.72
142. TIIEPAGESDNPLRFTEGLVVALD  3.73
143. TIIEPAGESDNQLRFTSGLVVALD  3.73
144. TIIEPAGESDNPLRFTSGLKVALD  3.75
145. TIIEPAGESDNPLRFTSGLGVALD  3.76
146. TIIEPAGESDNPLRFTSGLSVALD  3.77
147. TIIEPAGESDNPARFTSGLVVALD  3.81
148. TIIEPAGESDNPLRFTSGLTVALD  3.82
149. TIIEPAGESDNPSRFTSGLVVALD  3.86
150. TIIEPAGESDNPLRCTSGLVVALD  3.87
151. TIIEPAGESDNPLRPTSGLVVALD  3.9
152. TIIEPAGESDNPLRFTSGLQVALD  3.91
153. TIIEPAGESDNPLHFTSGLVVALD  3.91
154. TIIEPAGESDNPLRFDSGLVVALD  3.92
155. TIIEPAGESDNPLRFTDGLVVALD  3.92
156. TIIEPAGESDNPLRRTSGLVVALD  3.92
157. TIIEPAGESDNPLDFTSGLVVALD  3.93
158. TIIEPAGESDNPLRFTSGCVVALD  3.95
159. TIIEPAGESDNPLNFTSGLVVALD  3.95
160. TIIEPAGESDNPLRVTSGLVVALD  3.97
161. TIIEPAGESDNPLRQTSGLVVALD  3.99
162. TIIEPAGESDNPLRFTSGAVVALD  4.01
163. TIIEPAGESDNPLRFTSGRVVALD  4.01
164. TIIEPAGESDNPLRFTSGLEVALD  4.03
165. TIIEPAGESDNPLRGTSGLVVALD  4.03
166. TIIEPAGESDNPTRFTSGLVVALD  4.03
167. TIIEPAGESDNPLRFTSGQVVALD  4.05
168. TIIEPAGESDNPLRFTSGNVVALD  4.11
169. TIIEPAGESDNPERFTSGLVVALD  4.12
170. TIIEPAGESDNPLRFTSGGVVALD  4.16
171. TIIEPAGESDNPLRFTSGTVVALD  4.16
172. TIIEPAGESDNPLRSTSGLVVALD  4.21
173. TIIEPAGESDNPLEFTSGLVVALD  4.21
174. TIIEPAGESDNPLRFTSGLPVALD  4.23
175. TIIEPAGESDNPLRFTSGKVVALD  4.27
176. TIIEPAGESDNPLRATSGLVVALD  4.29
177. TIIEPAGESDNPLRTTSGLVVALD  4.3
178. TIIEPAGESDNPLRFTSGEVVALD  4.34
179. TIIEPAGESDNPLRNTSGLVVALD  4.36
180. TIIEPAGESDNPLRHTSGLVVALD  4.37
181. TIIEPAGESDNPLRFTSGLDVALD  4.38
182. TIIEPAGESDNPDRFTSGLVVALD  4.41
183. TIIEPAGESDNPLRFTSGLVEALD  4.5
184. TIIEPAGESDNPLRETSGLVVALD  4.63
185. TIIEPAGESDNPLRFTSGSVVALD  4.77
186. TIIEPAGESDNPLRFTSGLVDALD  4.92
187. TIIEPAGESDNPLRFTSGDVVALD  4.96
188. TIIEPAGESDNPLRDTSGLVVALD  5.04
